Source: PMC11972402 (Nature Communications, 2025)

Molecular target: T1, Saccharomyces cerevisiae Rat1-Rai1 complex (Saccharomyces cerevisiae, UniProt Q02792 1-981; P53063 1-387)
T1 sequence (looked up) 1: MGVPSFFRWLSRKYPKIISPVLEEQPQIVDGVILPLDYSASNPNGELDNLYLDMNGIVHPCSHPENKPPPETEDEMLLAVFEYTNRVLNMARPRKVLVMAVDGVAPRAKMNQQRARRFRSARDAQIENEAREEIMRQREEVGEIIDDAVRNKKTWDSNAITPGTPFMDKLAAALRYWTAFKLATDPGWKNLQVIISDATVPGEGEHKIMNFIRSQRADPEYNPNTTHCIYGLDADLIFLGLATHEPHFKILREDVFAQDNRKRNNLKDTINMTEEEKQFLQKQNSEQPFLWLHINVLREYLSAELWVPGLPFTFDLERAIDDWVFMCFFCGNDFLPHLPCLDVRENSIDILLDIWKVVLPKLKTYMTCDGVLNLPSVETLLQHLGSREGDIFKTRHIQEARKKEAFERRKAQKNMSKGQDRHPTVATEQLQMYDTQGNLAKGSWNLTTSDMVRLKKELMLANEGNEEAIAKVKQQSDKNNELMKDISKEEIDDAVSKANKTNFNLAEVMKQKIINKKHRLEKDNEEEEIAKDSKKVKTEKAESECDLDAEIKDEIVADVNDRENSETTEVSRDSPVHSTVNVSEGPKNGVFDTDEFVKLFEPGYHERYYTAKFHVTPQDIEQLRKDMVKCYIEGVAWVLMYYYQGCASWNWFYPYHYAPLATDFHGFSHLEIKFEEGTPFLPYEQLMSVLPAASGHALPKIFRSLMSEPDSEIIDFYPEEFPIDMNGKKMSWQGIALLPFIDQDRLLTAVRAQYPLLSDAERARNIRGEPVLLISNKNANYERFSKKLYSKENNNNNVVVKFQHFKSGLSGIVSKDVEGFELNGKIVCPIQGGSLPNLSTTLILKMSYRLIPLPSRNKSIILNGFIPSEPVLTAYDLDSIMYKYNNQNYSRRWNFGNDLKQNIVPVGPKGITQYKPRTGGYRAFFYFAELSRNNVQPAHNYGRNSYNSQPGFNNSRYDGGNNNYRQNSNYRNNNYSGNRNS
T1 sequence (looked up) 2: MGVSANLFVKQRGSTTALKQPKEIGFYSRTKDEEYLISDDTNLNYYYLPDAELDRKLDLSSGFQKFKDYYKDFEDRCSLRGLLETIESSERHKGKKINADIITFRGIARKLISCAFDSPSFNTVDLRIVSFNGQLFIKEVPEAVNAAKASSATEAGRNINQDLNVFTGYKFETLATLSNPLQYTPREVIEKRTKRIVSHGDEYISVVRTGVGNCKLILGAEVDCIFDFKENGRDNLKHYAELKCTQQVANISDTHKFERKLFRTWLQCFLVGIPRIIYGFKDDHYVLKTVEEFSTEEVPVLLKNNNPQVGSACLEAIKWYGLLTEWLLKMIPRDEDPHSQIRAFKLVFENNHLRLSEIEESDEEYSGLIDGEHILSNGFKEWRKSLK
Assay: pull-down

SAKDPSRLNKNVDEDNIIPTYEVGDGDDDD (domain or fragment, Saccharomyces cerevisiae, UniProt Q05543 243-272, looked up) [N-terminal 6×His-MBP tagged S. cerevisiae Rtt103 RIS (243-272) wild-type]
binding result: binds
